Reference: patent US20230002481A1 (Chugai, published 2023)
Changes are numbered by the printed parent chain.

How the values were obtained:
[1] = target: T1, cyno FcγRIIa3 (cynomolgus monkey); assay: SPR (Biacore T200), antibody captured on Protein L, FcγR at 1000 nM, pH7.4, 25 C
T1 construct: not shown: C-terminal His-tag
T1 chain: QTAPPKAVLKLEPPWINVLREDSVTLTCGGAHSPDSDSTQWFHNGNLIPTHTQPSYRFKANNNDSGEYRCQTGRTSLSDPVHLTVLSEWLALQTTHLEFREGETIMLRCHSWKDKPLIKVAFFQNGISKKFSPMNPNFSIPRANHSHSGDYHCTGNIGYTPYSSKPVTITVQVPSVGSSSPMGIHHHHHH
Description: (§1) Analysis of interaction between antibody and the FcγR prepared as mentioned above was carried out using BIACORE (registered trademark) T200 (GE Healthcare). 150 mMN Sodium chloride and 0.05 w/v % Tween-20 containing 50 mM phosphate buffer (pH7.4) was used as running buffer, and the measurement temperature was set to 25 degrees C. Chip produced by immobilizing Protein L (BioVision) by the amine coupling method to a Series S sensor Chip CM4 (GE Healthcare) was used. After capturing 500 or 1000 resonance unit (RU) of antibodies of interest onto the chip, FcγRs diluted with the running buffer were allowed to interact, and their binding amounts to antibodies were measured. Cyno FcγRIa was diluted to 8 nM, and others were diluted to 1000 nM. Then, antibodies captured onto the chip were washed by 10 mM Glycine-HC, pH1.5, and the chip was regenerated and used repeatedly. The binding amounts of FcγRs were divided by the binding amount of each antibody captured to obtain binding activity using biacore evaluation software, and these values were compared. Furthermore, the relative values of binding activity of COS0098pHv1-SG1077R to each FcγR to COS0098pHv1-SG1 (an antibody having the sequence of a naturally-occurring human IgG1 at positions 234 to 239, 265 to 271, 295, 296, 298, 300, and 324 to 337, according to EU numbering) were calculated.

[2] = target: T2, cyno FcγRIIIa(S) (cynomolgus monkey, UniProt Q8SPW2 21-206 at identity 1.00)); assay: as above
T2 construct: also called cyFcyRIIIa(S); not shown: C-terminal His-tag
T2 chain: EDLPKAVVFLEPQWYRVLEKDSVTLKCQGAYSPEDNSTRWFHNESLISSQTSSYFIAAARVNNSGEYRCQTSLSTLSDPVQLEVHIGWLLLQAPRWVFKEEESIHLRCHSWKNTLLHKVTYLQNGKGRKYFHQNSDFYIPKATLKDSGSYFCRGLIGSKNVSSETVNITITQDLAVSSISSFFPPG
Description: as §1

[3] = target: T3, cyno FcγRIIb (cynomolgus monkey); assay: as above
T3 construct: also called cyFcyRIIb; not shown: C-terminal His-tag
T3 chain: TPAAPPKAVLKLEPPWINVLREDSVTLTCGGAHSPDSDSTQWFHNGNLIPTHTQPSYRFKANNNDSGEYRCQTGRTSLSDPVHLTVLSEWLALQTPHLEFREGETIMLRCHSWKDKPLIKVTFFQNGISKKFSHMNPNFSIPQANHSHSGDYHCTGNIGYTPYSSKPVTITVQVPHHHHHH
Description: as §1

[4] = target: T4, cyno FcγRIIIa(R) (cynomolgus monkey, UniProt Q8SPW2 17-208); assay: as above
T4 construct: also called cyFcyRIIIa(R); not shown: C-terminal His-tag
T4 sequence (Q8SPW2 other isoform, or with tags, fused parts or gaps): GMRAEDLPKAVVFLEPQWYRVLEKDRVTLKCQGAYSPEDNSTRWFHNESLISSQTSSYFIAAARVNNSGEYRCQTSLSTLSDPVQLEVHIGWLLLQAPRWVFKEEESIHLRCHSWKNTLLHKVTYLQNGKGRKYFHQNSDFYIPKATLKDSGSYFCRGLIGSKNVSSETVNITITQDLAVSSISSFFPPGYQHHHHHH
Description: as §1

[5] = target: T5, cyno FcγRIIa2 (cynomolgus monkey); assay: as above
T5 construct: also called cyFcyRIIa2; not shown: C-terminal His-tag
T5 chain: T1 chain with I127K, K130N, P133H, R142Q
Description: as §1

[6] = target: T6, cyno FcγRIIa1 (cynomolgus monkey); assay: as above
T6 construct: also called cyFcyRIIa1; not shown: C-terminal His-tag
T6 chain: T1 chain with T95P, A121T, S128A, P133H, N135D
Description: as §1

[7] = target: T7, cyno FcγRIa (cynomolgus monkey, UniProt P12314 16-288 (human entry)); assay: SPR (Biacore T200), antibody captured on Protein L, FcγRIa at 8 nM, pH7.4, 25 C
T7 construct: also called cyFcyRIa; cynomolgus monkey Fc gamma receptor Ia; not shown: C-terminal His-tag
T7 chain: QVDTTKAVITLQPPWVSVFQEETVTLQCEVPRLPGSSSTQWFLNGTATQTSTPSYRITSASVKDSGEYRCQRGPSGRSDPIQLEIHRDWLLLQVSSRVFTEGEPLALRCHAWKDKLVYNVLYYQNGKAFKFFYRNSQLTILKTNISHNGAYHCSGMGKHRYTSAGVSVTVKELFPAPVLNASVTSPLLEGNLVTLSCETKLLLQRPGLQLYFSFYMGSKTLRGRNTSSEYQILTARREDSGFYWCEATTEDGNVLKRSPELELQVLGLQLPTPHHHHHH
Description: as §1

[8] = target: T8, cyno FcRn complexed with β2-microglobulin (cynomolgus monkey, UniProt Q8SPV9 24-290; Q8SPW0 21-119); assay: SPR (Biacore T200), antibody captured on Protein L, cyno FcRn 0-240 nM as analyte, steady-state analysis, pH6.0, 25 C
T8 construct: also called cynomolgous monkey neonatal Fc receptor
T8 sequence (Q8SPV9 24-290 limits assumed, chain 1 of 2): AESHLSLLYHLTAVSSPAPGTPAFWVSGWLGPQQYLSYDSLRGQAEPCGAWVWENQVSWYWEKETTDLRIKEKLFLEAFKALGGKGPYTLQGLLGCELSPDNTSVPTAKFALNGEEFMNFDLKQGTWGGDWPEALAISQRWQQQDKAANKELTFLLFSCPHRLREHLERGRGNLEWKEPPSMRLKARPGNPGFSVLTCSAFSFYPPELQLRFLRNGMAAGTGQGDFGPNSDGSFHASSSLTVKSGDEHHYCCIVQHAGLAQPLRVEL
T8 sequence (Q8SPW0 21-119 limits assumed, chain 2 of 2): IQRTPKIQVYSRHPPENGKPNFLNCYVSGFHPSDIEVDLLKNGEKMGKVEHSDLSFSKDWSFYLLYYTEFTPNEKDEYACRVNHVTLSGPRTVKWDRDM
Description: Analysis of interaction between each antibody and the FcRn prepared as mentioned above was carried out using BIACORE (registered trademark) T200 (GE Healthcare). Buffer solution containing 150 mM sodium chloride, 0.05 w/v % Tween-20, 50 mM phosphate buffer (pH6.0) was used as running buffer, and the measurement temperature was set to 25 degrees C. Series S sensor Chip CM4 (GE Healthcare) onto which Protein L (BioVision) had been immobilized by the amine coupling method was used. After capturing 400 resonance unit (RU) of antibodies of interest onto the chip via the Protein L, FcRn diluted with the running buffer was allowed to interact, then the KD values were calculated. COS0098pHv1-SG1 was evaluated with 0, 250, 500, 1000, 2000, 4000 nM cyno FcRn, and COS0098pHv1-SG1077R was evaluated with 0, 15, 30, 60, 120, 240 nM cyno FcRn. Then, the chip capturing each antibody was washed by 10 mM Glycine-HCl, pH1.5, regenerated and used repeatedly. The equilibrium dissociation constant (KD (M)) for cyno FcRn was calculated for each antibody based on the steady-state analysis. The Biacore T200 Evaluation Software (GE Healthcare) was used to calculate each parameter.

B1: COS0098pHv1-SG1077R (antibody)
heavy: QVQLVQSGAEVKKPGSSVKVSCKASGHTFSKYTVSWIRQPPGKGLEWIGIINTGGSAYPATWAKGRVTITADESTSTAYMELSSLRSEDTAVYYCARGAGDTDYTNLWGQGTLVTVSSASTKGPSVFPLAPSSKSTSGGTAALGCLVKDYFPEPVTVSWNSGALTSGVHTFPAVLQSSGLYSLSSVVTVPSSSLGTQTYICNVNHKPSNTKVDKRVEPKSCDKTHTCPPCPAPELWNGPSVFLFPPKPKDTLMISRTPEVTCVVVDVSDEDPEVKFNWYVDGVEVHNAKTKPREELYNSTYRVVSVLTVLHRDWLNGKEYKCKVSNTALPKPIEKTISKAKGQRREPQVYTLPPSREEMTKNQVSLTCLVKGFYPSDIAVEWESNGQPENNYKTTPPVLDSDGSFFLYSKLTVDKSRWQQGNVFSCSVLHEALHAHTTRKELSLSP
light: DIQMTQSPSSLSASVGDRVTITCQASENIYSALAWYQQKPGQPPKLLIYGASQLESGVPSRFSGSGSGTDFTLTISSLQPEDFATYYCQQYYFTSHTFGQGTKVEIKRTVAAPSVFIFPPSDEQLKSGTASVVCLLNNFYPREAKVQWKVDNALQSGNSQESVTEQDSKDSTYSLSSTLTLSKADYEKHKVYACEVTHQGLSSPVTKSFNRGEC
notes: also called COS009pHv1-SG1077R; COS009BpHv1-SG1077R
In the case of B1, the “Binding activity value (Binding amount per 1 RU antibody)” value [1] is reported as 0.025 RU per 1 RU antibody, the “Relative value of binding activity” value [1] is reported as 3.96 fold, relative to COS0098pHv1-SG1 and the “Binding activity value (Binding amount per 1 RU antibody)” value [2] is reported as 0.0084 RU per 1 RU antibody. The “Relative value of binding activity” value [2] was 0.07 fold, relative to COS0098pHv1-SG1, the “Binding activity value (Binding amount per 1 RU antibody)” value [3] was 0.082 RU per 1 RU antibody and the “Relative value of binding activity” value [3] was 2.86 fold, relative to COS0098pHv1-SG1. The “Binding activity value (Binding amount per 1 RU antibody)” value [4] was 0.006 RU per 1 RU antibody, the “Relative value of binding activity” value [4] was 0.05 fold, relative to COS0098pHv1-SG1 and the “Binding activity value (Binding amount per 1 RU antibody)” value [5] was 0.0425 RU per 1 RU antibody. For the same binder, the “Relative value of binding activity” value [5] was 2.51 fold, relative to COS0098pHv1-SG1, the “Binding activity value (Binding amount per 1 RU antibody)” value [6] was 0.0436 RU per 1 RU antibody and the “Relative value of binding activity” value [6] was 2.23 fold, relative to COS0098pHv1-SG1. The “Relative value of binding activity” value [7] was 0.06 fold, relative to COS0098pHv1-SG1 and the Kd [8] was 70 nM.
